Target: PY-NLS mutants (R206W/Q/G, P209L, and Y210C)
Test: co-IP

reduction in Kapβ2 interaction against WT: 50 to 75%
Substance: Kapβ2, endogenous in HEK293T cells (from UniProt Q92973 1-898) (receptor)

From publication doi:10.1101/2022.03.17.484791
